Measured values: patent CN117886936A

Biological target: hCD47-ECD-his (human) (UniProt Q08722)
Experiment: ELISA on coated human CD47-his after pre-incubating the antibody with human red blood cells (1E8/well)

Sequence of UniProt Q08722 (Q08722 other isoform, or with tags, fused parts or gaps): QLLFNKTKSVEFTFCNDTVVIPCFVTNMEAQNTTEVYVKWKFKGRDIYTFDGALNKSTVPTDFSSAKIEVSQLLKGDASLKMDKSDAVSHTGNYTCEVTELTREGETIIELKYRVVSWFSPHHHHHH

- EC50: 3.15 µg/mL
Substance: ALX148
